Results on one molecule are retold here after PMC3025356, “Mechanism of the Ca^2+-Dependent Interaction between S100A4 and Tail Fragments of Nonmuscle Myosin Heavy Chain IIA” (Journal of Molecular Biology, 2011).

In data set [1] the target is T1, S100A4 (Homo sapiens, UniProt P26447).
T1 construct: We used full-length S100A4 for this analysis; made in house; host or cells: Escherichia coli BL21(DE3)
Put plainly: Ca^2+ dependence of M200 turbidity in the presence of S100A4. The data set is classed as biochemical. The note with it: 5 μM M200 + S100A4; 100 mM NaCl, 20 mM Hepes, 1 mM Mg^2+, 1 mM EGTA, 1 μM Fura-2; read-out: apparent Kd for Ca^2+ binding. The source says: The decrease in fluorescence, […]
that F-M16N binding was slightly faster.
The equilibrium constant (K5) for dissociation of the M200.S100A4.Ca2+ complex The value of K5 (scheme 2) was estimated from two independent experiments. From the competition […]
inhibition in the amplitude of the turbidity change arising from 5 M M200 at saturating Ca2+ concentrations. Under these conditions the free S100A4.Ca2+ concentration is ~ 0.06 M based on K2 = 3 […]
concentration will remain close to its critical concentration (K4 = 0.1 M), so that K5 = 0.1 * 0.06 / 5 ≈ 0.001 M, which represents the binding of S100A4.Ca2+ to free M200.
A second estimate was calculated from the apparent Ca2+ binding constant observed in the turbidity assay
(Fig. S6c). 5 M M200 in the presence of S100A4 and 1 mM EGTA gave a high turbidity in 0.1 M NaCl buffer, as S100A4 binds weakly under these conditions. Addition of aliquots of Ca2+ caused filament dissociation as the free Ca2+ rose, to give an apparent binding constant for Ca2+ of 0.14 M (Fig. S6c). At […]
contained 100 mM NaCl, 20 mM Hepes, 1 mM Mg2+, 1 mM EGTA and 1 µM Fura-2. Ca2+ was added in l aliquots and the turbidity measured (using the 10 mm path length). The free Ca2+ was calculated from the ratio of the Fura-2 340 nm to 362 nm excitation peaks, assuming a Kd of 0.224 M 1, measured between each addition of Ca2+ (using the 2 mm path length for excitation).

Data set [2] in a line: Turbidity of M200 filaments. It is filed as physicochemical. Here is the method:
Absorption spectra were recorded using a Cary 50 spectrophotometer (Varian Ltd., Walton on Thames, UK). Protein concentrations were calculated from their absorbance at 280 nm, using molar coefficients of 2980 M^− 1 cm^− 1 (M200 and S100A4) and 1490 M^− 1 cm^− 1 (M111), based on their tyrosine content (two residues per chain and one residue per chain, respectively). Myosin fragments were measured in 0.5 M NaCl buffer, and care was taken to correct for the small contribution from turbidity. Protein concentrations are stated in terms of their monomeric polypeptide chain concentration. Under the conditions used for kinetic analysis, S100A4 is predominantly a dimer,[21,25] and M200 and M111 form stable coiled coils; therefore, the molar protein concentrations are half those given in all three cases. Fluorescence emission spectra were also checked, and those preparations containing a detectable shoulder at 340 nm due to contaminating tryptophan-containing proteins were subjected to further purification. F-M16^N concentrations were based on fluorescein absorbance (ɛ490 = 78,000 M^− 1 cm^− 1). […] Quin-2 concentrations were calculated from ɛ354 = 5000 M^− 1 cm^− 1 in the absence of Ca^2+.[39] Turbidity assays used to monitor M200 filament formation and solubilisation with manual mixing were carried out using a 10-mm pathlength and a 0.1-ml microcuvette (105.250-QS; Hellma, Southend on Sea, UK) at a wavelength of 300 nm. For determination of the free Ca^2+ concentration, Fura-2 fluorescence excitation spectra were measured in the same cuvette using the 2-mm path for excitation to minimise inner filter effects. […]
y = m2*(1-((m0^m4)/(m0^ m4+m...
Fig. S5. (a) Turbidity of the M200 fragment (5
M) as a function of [NaCl]. (b) Determination of the critical concentration of M200 in 100 mM NaCl, 10 mM Hepes, 0.1 mM Ca2+ at pH 7.5 and 20 °C. Aliquots of 1 or […]
l of M200 were added to 1 ml buffer and the turbidity reading determined over a 30 s period. A linear fit to the data obtained above 0.3
M indicated a critical concentration of 0.1 […]

Data set [3] concerns M200 filamentous bundles. Nature of the data set: Electron microscopy of myosin IIA tail fragments. Also noted: species or system human. As to the method:
Fig. 8 Characterisation of myosin IIA coiled-coil tail fragments. Metal-shadowed electron micrographs of (a) M200 and (b) M111 deposited from 0.5 M ammonium acetate. Scale bar represents 50 nm. (c and d) Electron micrographs of a negatively stained M200 tail fragment. Fields of M200 (c) in the absence and (d) in the presence of a 2-fold molar excess of S100A4, respectively. Arrows point to individual strands emerging from images of filamentous bundles. The samples were prepared in 0.1 M sodium acetate buffer, where M200 formed large filamentous aggregates but were solubilised in the presence of S100A4. Scale bar represents 200 nm (see Materials and Methods for details).
For negative staining, the stock solution of the M200 tail fragment was diluted with a solution consisting of 0.1 M Na-acetate, 3 mM MgCl2, 0.1 mM CaCl2, 10 mM imidazole, and 5 mM NaH2PO4 (pH 7.0), with or without 14 μM S100A4, to give a final concentration of 7 μM M200. Following dilution, 5 μl of the mixture was applied to a grid with a thin carbon film supported by a holey carbon film, and the grid was negatively stained using 1% uranyl acetate. For metal shadowing, the stock solutions of the M200 and M111 tail fragments were diluted with 0.5 M ammonium acetate solution to give a final concentration of 5 μM protein. This was mixed with an equal volume of glycerol, and the resulting mixture was sprayed onto freshly cleaved mica then rotary shadowed with platinum at an angle of 6°.[46] Grids were examined in a Philips CM120 electron microscope (FEI, Hillsboro, OR) operated at 80 kV. Images were recorded on a 2000 × 2000 F224HD slow-scan CCD camera (TVIPS, Gauting, Germany) at a magnification of 65,000× (0.37 nm pixel^− 1). The lengths of nonoverlapping well-shadowed molecules were measured as described by Burgess et al.[47]

“And” between values parts separate entries of the source, which are not always exact repeats. Identical values can stand only once.

T1 sequence (P26447 whole entry): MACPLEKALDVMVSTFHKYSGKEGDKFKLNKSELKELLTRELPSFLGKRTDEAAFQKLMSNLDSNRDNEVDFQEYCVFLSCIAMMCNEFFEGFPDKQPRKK

B1: M200: His-tagged human NM-MHC IIA residues Q1761-E1960, V1913I substitution (protein, UniProt P35579 1761-1960, looked up, variant V1913I)
chain: QINTDLNLERSHAQKNENARQQLERQNKELKVKLQEMEGTVKSKYKASITALEAKIAQLEEQLDNETKERQAACKQVRRTEKKLKDVLLQVDDERRNAEQYKDQADKASTRLKQLKRQLEEAEEEAQRANASRRKLQRELEDATETADAMNREISSLKNKLRRGDLPFVVPRRMARKGAGDGSDEEVDGKADGAEAKPAE
modifications: His tag
notes: His-tagged human NM-MHC IIA residues Q1761-E1960, V1913I substitution
In the case of B1, the Kd in data set [1] was determined as 140 nM. Besides, the “NaCl midpoint of turbidity transition” value in data set [2] (5 μM M200) is listed as “about 120 mM NaCl”. The “intercept (critical concentration) from 2.5-5 μM data only” value in data set [2] (100 mM NaCl) came out at 0.49 µM. Moreover, in data set [2] (100 mM NaCl, 10 mM Hepes, 0.1 mM Ca^2+, pH 7.5, 20 °C), the critical concentration was ~0.1 ± 0.04 µM and < 0.2 µM. In addition, the “critical concentration (supplement)” value in data set [2] (100 mM NaCl, 10 mM Hepes, 0.1 mM Ca^2+, pH 7.5, 20 °C, fit above 0.3 μM) was 0.1 µM. Also, in data set [3] (0.1 M Na-acetate), the filamentous bundle width is recorded as around 100 nm and the individual strand width entry is on record as “about 10 nm”. Moreover, in data set [3] (metal shadowed, 0.5 M ammonium acetate, mean ± SD, n = 132), the “mean length of coiled coil” value was determined as 26.4 ± 2.03 nm.
